Assays:
[1] = molecular target: DQ6 (DQA1*01:02-DQB1*06:02)-restricted influenza virus HA-specific TCR (DM2); assay: flow cytometry, TCR-transduced primary T cells
[2] = molecular target: memory CD4+ T cells from DP4+ donors, unstimulated (a small subset; their TCRs); assay: flow cytometry ex vivo; 159441 evts in the dimer- CD4+ gate
[3] = molecular target: memory CD4+ T cells from DP4+ donors, unstimulated (a small subset; their TCRs); assay: flow cytometry ex vivo; 82428 evts in the dimer- CD4+ gate
[4] = molecular target: memory CD4+ T cells from DP4+ donors, unstimulated (a small subset; their TCRs); assay: flow cytometry ex vivo; 73637 evts in the dimer- CD4+ gate
[5] = molecular target: memory CD4+ T cells from DP4+ donors, unstimulated (a small subset; their TCRs); assay: flow cytometry ex vivo; 122436 evts in the dimer- CD4+ gate
[6] = molecular target: memory CD4+ T cells from DP4+ donors, unstimulated (a small subset; their TCRs); assay: flow cytometry ex vivo; 49894 evts in the dimer- CD4+ gate
[7] = molecular target: memory CD4+ T cells from DP4+ donors, unstimulated (a small subset; their TCRs); assay: flow cytometry ex vivo; 160045 evts in the dimer- CD4+ gate
[8] = molecular target: memory CD4+ T cells from DP4+ donors, unstimulated (a small subset; their TCRs); assay: flow cytometry ex vivo; 50227 evts in the dimer- CD4+ gate
[9] = molecular target: memory CD4+ T cells from DP4+ donors, unstimulated (a small subset; their TCRs); assay: flow cytometry ex vivo; 80783 evts in the dimer- CD4+ gate
[10] = molecular target: memory CD4+ T cells from DP4+ donors, unstimulated (a small subset; their TCRs); assay: flow cytometry ex vivo; 71402 evts in the dimer- CD4+ gate
[11] = molecular target: memory CD4+ T cells from DP4+ donors, unstimulated (a small subset; their TCRs); assay: flow cytometry ex vivo; 122665 evts in the dimer- CD4+ gate

Control (DQ6^L114W/V143M+3reps dimer) (peptide-MHC)
% dimer+ CD4+ cells [1]: 0.1%

DP4^L112W/V141M dimer loaded with herpes simplex virus type-2-UL21283-302 (HSV-2-UL21283-302) (peptide-MHC)
events in the dimer+ CD4+ gate [2]: 1 evts
events in the dimer+ CD4+ gate [3]: 1 evts
events in the dimer+ CD4+ gate [4]: 8 evts
events in the dimer+ CD4+ gate [5]: 6 evts
events in the dimer+ CD4+ gate [6]: 1 evts

DP4^L112W/V141M dimer loaded with respiratory syncytial virus glycoprotein162-175 (RSV-GP162-175) (peptide-MHC)
events in the dimer+ CD4+ gate [7]: 37 evts
events in the dimer+ CD4+ gate [8]: 1 evts
events in the dimer+ CD4+ gate [9]: 4 evts
events in the dimer+ CD4+ gate [10]: 25 evts
events in the dimer+ CD4+ gate [11]: 10 evts

DR1 dextramer (PE), Flu-HA306-318 (peptide-MHC)
percent multimer-positive CD4+ cells (number at the gate) (DR1-restricted TCR HA1.7): 30.4%

Reference: patent US20220291215A1
